Assay results as given in paper PMC3798605 (2013).

How the values were obtained:
[1] = target: T1, TbPIP39 wild type (Trypanosoma brucei); assay: SPR; 2 mM citrate
[2] = target: T1, TbPIP39 wild type; assay: SPR; 2 mM citrate, steady state

B1: TbPTP1 (enzyme)
chain: MSTAKSFPMAQLSTRAQYSRMQREFVQLQRQENPRNINFTTSLKNRHKNRYLDILANEETIYPPVLKAVGAQPGRYPYINGNLIDLDLPHTFVACQAPVPQGVPDFLETLSEKKVDLVVMLTKLREGGVLKAERYWPEEEEDSLSFPESGHDAIKVTRDAEASYEVDAELDIVRRPLVIHVPGKPMHRVLQVQYVGWPDHGVPESAASFDELLSVIKNCVTTSPILVHCSAGIGRTGTLIGAYAALLHIERGILTDSTVYSIVAAMKQKRFGMVQRLEQYAVIYMTVLGRLGVDISGLVSTLNLKA
Work on B1 yielded a Kd [1] of 42 µM, a koff [1] of 0.05 s⁻¹ and a Kd [2] of 50.8 µM.
